Experimental data taken from article PMC8630191, “Regulation of PP2A, PP4, and PP6 holoenzyme assembly by carboxyl-terminal methylation” (Scientific Reports, 2021).
Values belong to the binder of their own block, whether it stands above or below them.

Columns and labels:
Conditions in all cases: partners not purified
[1] = molecular target: T1, 3xFLAG-tagged PP2Acβ ΔL mutant (Leu 309 deleted) (human, UniProt P62714 1-309, ΔL309); assay: affinity purification with mass spectrometry; 3xFLAG-tagged catalytic subunit (WT or ΔL) transfected in FreeStyle 293F cells; FLAG M2 affinity gel, 3 h at 4 °C; lysis and wash buffer 50 mM Tris pH 7.5, 500 mM NaCl, 0.5% Triton X-100; eluted with 3XFLAG peptide; label-free quantitative LC-MS/MS on unique peptides, three replicates
T1 construct: PP2A catalytic subunit, beta isoform (PP2Acβ, PPP2CB), human, in p3XFLAG-CMV10; C-terminal Leu 309 deleted by inserting a stop codon; also called ΔL309
T1 sequence (P62714 1-308, stated change not applied): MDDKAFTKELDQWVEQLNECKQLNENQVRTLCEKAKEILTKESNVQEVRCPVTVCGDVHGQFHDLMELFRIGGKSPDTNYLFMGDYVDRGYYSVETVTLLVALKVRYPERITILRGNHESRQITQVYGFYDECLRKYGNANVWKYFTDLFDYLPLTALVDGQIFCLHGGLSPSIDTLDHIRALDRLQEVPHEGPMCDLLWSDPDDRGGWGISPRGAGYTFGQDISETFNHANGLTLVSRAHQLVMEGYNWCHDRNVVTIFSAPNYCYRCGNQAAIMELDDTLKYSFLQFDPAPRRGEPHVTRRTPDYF

[2] = molecular target: T2, PP2A catalytic subunit PP2Acα/β, endogenous (human (endogenous in HEK293T, HeLa, …, UniProt P67775 1-309, carboxyl methyl ester on the C-terminal leucine in wild-type cells; strongly reduced in LCMT1 hypomorph cells); assay: affinity purification with mass spectrometry; PIB-MS: phosphatase inhibitor beads (microcystin-LR on sepharose) on Rpe1 lysates, wild type and pooled LCMT1 hypomorph cells; label-free LC-MS/MS; subunits normalised to the respective catalytic subunit
T2 construct: PP2A catalytic subunit, alpha (PPP2CA) or beta (PPP2CB) isoform; One molecule for wild-type and LCMT1 hypomorph cells; also called PP2Acβ; PPP2CA/B
T2 sequence (P67775 whole entry, canonical isoform): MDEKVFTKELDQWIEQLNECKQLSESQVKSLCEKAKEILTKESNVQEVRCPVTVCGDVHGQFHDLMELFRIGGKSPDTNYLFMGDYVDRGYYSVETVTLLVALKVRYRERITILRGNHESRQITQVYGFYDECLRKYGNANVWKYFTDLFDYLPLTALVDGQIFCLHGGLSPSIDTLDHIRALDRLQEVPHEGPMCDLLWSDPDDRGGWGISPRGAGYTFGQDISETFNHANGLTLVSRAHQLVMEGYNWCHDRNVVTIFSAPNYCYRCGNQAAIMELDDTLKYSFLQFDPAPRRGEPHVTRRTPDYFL

[3] = molecular target: T2, PP2A catalytic subunit PP2Acα/β, …; assay: affinity purification with mass spectrometry; PIB-MS: phosphatase inhibitor beads (microcystin-LR on sepharose) on HeLa lysates, wild type and LCMT1 hypomorph clone; label-free LC-MS/MS; subunits normalised to the respective catalytic subunit

B1: B56α, PP2A regulatory subunit (natural protein)
chain: not shown
notes: PP2A regulatory subunit B56, alpha isoform
- fold reduction of binding, ΔL against WT [1]: 32 fold

B4: B56δ, PP2A regulatory subunit (natural protein)
chain: not shown
notes: PP2A regulatory subunit B56, delta isoform
- fold reduction of binding, ΔL against WT [1]: 2 fold

B5: B55α, PP2A regulatory subunit (natural protein, human (endogenous in HeLa), UniProt P63151 1-447, looked up)
chain: MAGAGGGNDIQWCFSQVKGAVDDDVAEADIISTVEFNHSGELLATGDKGGRVVIFQQEQENKIQSHSRGEYNVYSTFQSHEPEFDYLKSLEIEEKINKIRWLPQKNAAQFLLSTNDKTIKLWKISERDKRPEGYNLKEEDGRYRDPTTVTTLRVPVFRPMDLMVEASPRRIFANAHTYHINSISINSDYETYLSADDLRINLWHLEITDRSFNIVDIKPANMEELTEVITAAEFHPNSCNTFVYSSSKGTIRLCDMRASALCDRHSKLFEEPEDPSNRSFFSEIISSISDVKFSHSGRYMMTRDYLSVKIWDLNMENRPVETYQVHEYLRSKLCSLYENDCIFDKFECCWNGSDSVVMTGSYNNFFRMFDRNTKRDITLEASRENNKPRTVLKPRKVCASGKRKKDEISVDSLDFNKKILHTAWHPKENIIAVATTNNLYIFQDKVN
notes: PP2A regulatory subunit B55, alpha isoform; source: endogenous, HeLa lysate
- fold reduction of binding, LCMT1 HM against WT cells [3]: ~11 fold

B7: B55β, PP2A regulatory subunit (natural protein, human (endogenous in HeLa), UniProt Q00005 1-443, looked up)
chain: MEEDIDTRKINNSFLRDHSYATEADIISTVEFNHTGELLATGDKGGRVVIFQREQESKNQVHRRGEYNVYSTFQSHEPEFDYLKSLEIEEKINKIRWLPQQNAAYFLLSTNDKTVKLWKVSERDKRPEGYNLKDEEGRLRDPATITTLRVPVLRPMDLMVEATPRRVFANAHTYHINSISVNSDYETYMSADDLRINLWNFEITNQSFNIVDIKPANMEELTEVITAAEFHPHHCNTFVYSSSKGTIRLCDMRASALCDRHTKFFEEPEDPSNRSFFSEIISSISDVKFSHSGRYIMTRDYLTVKVWDLNMENRPIETYQVHDYLRSKLCSLYENDCIFDKFECVWNGSDSVIMTGSYNNFFRMFDRNTKRDVTLEASRENSKPRAILKPRKVCVGGKRRKDEISVDSLDFSKKILHTAWHPSENIIAVAATNNLYIFQDKVN
notes: PP2A regulatory subunit B55, beta isoform; source: endogenous, HeLa lysate
- fold reduction of binding, LCMT1 HM against WT cells [3]: ~4 fold

The remaining lines, values ahead:

- fold reduction of binding, LCMT1 HM against WT cells [2]: 4 fold
B2: STRN3 (striatin-3) (natural protein, human (endogenous in Rpe1), UniProt Q13033 1-797, looked up)
chain: MDELAGGGGGGPGMAAPPRQQQGPGGNLGLSPGGNGAAGGGGPPASEGAGPAAGPELSRPQQYTIPGILHYIQHEWARFEMERAHWEVERAELQARIAFLQGERKGQENLKKDLVRRIKMLEYALKQERAKYHKLKYGTELNQGDLKMPTFESEETKDTEAPTAPQNSQLTWKQGRQLLRQYLQEVGYTDTILDVRSQRVRSLLGLSNSEPNGSVETKNLEQILNGGESPKQKGQEIKRSSGDVLETFNFLENADDSDEDEENDMIEGIPEGKDKHRMNKHKIGNEGLAADLTDDPDTEEALKEFDFLVTAEDGEGAGEARSSGDGTEWDKDDLSPTAEVWDVDQGLISKLKEQYKKERKGKKGVKRANRTKLYDMIADLGDDELPHIPSGIINQSRSASTRMTDHEGARAEEAEPITFPSGGGKSFIMGSDDVLLSVLGLGDLADLTVTNDADYSYDLPANKDAFRKTWNPKYTLRSHFDGVRALAFHPVEPVLVTASEDHTLKLWNLQKTVPAKKSASLDVEPIYTFRAHIGPVLSLAISSNGEQCFSGGIDATIQWWNMPSPSVDPYDTYEPNVLAGTLVGHTDAVWGLAYSGIKNQLLSCSADGTVRLWNPQEKLPCICTYNGDKKHGIPTSVDFIGCDPAHMVTSFNTGSAVIYDLETSQSLVILSSQVDSGLQSNNHINRVVSHPTLPVTITAHEDRHIKFFDNKTGKMIHSMVAHLDAVTSLAVDPNGIYLMSGSHDCSIRLWNLDSKTCVQEITAHRKKLDESIYDVAFHSSKAYIASAGADALAKVFV
notes: Striatin-3, PP2A regulatory subunit of the striatin family (B'''); source: endogenous, Rpe1 lysate

- fold reduction of binding, ΔL against WT [1]: ~2 fold
B3: PR65β, PP2A scaffolding (A) subunit (natural protein, UniProt P30154 1-601, looked up)
chain: MAGASELGTGPGAAGGDGDDSLYPIAVLIDELRNEDVQLRLNSIKKLSTIALALGVERTRSELLPFLTDTIYDEDEVLLALAEQLGNFTGLVGGPDFAHCLLPPLENLATVEETVVRDKAVESLRQISQEHTPVALEAYFVPLVKRLASGDWFTSRTSACGLFSVCYPRASNAVKAEIRQQFRSLCSDDTPMVRRAAASKLGEFAKVLELDSVKSEIVPLFTSLASDEQDSVRLLAVEACVSIAQLLSQDDLETLVMPTLRQAAEDKSWRVRYMVADRFSELQKAMGPKITLNDLIPAFQNLLKDCEAEVRAAAAHKVKELGENLPIEDRETIIMNQILPYIKELVSDTNQHVKSALASVIMGLSTILGKENTIEHLLPLFLAQLKDECPDVRLNIISNLDCVNEVIGIRQLSQSLLPAIVELAEDAKWRVRLAIIEYMPLLAGQLGVEFFDEKLNSLCMAWLVDHVYAIREAATNNLMKLVQKFGTEWAQNTIVPKVLVMANDPNYLHRMTTLFCINALSEACGQEITTKQMLPIVLKMAGDQVANVRFNVAKSLQKIGPILDTNALQGEVKPVLQKLGQDEDMDVKYFAQEAISVLALA
notes: PP2A scaffolding subunit A, beta isoform (PR65β)

- fold reduction of binding, LCMT1 HM against WT cells [2]: 4 fold
B6: STRN (striatin) (natural protein, human (endogenous in Rpe1), UniProt O43815 1-780, looked up)
chain: MDEQAGPGVFFSNNHPGAGGAKGLGPLAEAAAAGDGAAAAGAARAQYSLPGILHFLQHEWARFEVERAQWEVERAELQAQIAFLQGERKGQENLKKDLVRRIKMLEYALKQERAKYHKLKYGTELNQGDMKPPSYDSDEGNETEVQPQQNSQLMWKQGRQLLRQYLQEVGYTDTILDVKSKRVRALLGFSSDVTDREDDKNQDSVVNGTEAEVKETAMIAKSELTDSASVLDNFKFLESAAADFSDEDEDDDVDGREKSVIDTSTIVRKKALPDSGEDRDTKEALKEFDFLVTSEEGDNESRSAGDGTDWEKEDQCLMPEAWNVDQGVITKLKEQYKKERKGKKGVKRPNRSKLQDMLANLRDVDELPSLQPSVGSPSRPSSSRLPEHEINRADEVEALTFPPSSGKSFIMGADEALESELGLGELAGLTVANEADSLTYDIANNKDALRKTWNPKFTLRSHFDGIRALAFHPIEPVLITASEDHTLKMWNLQKTAPAKKSTSLDVEPIYTFRAHKGPVLCVVMSSNGEQCYSGGTDGLIQGWNTTNPNIDPYDSYDPSVLRGPLLGHTDAVWGLAYSAAHQRLLSCSADGTLRLWNTTEVAPALSVFNDTKELGIPASVDLVSSDPSHMVASFSKGYTSIFNMETQQRILTLESNVDTTANSSCQINRVISHPTLPISITAHEDRHIKFYDNNTGKLIHSMVAHLEAVTSLAVDPNGLYLMSGSHDCSIRLWNLESKTCIQEFTAHRKKFEESIHDVAFHPSKCYIASAGADALAKVFV
notes: Striatin, PP2A regulatory subunit of the striatin family (B'''); source: endogenous, Rpe1 lysate

- fold reduction of binding, ΔL against WT [1]: 11 fold
- fold more reduced in binding (LCMT1 HM against WT cells) than B56γ and B56δ [3]: 8 fold
B8: B56ε, PP2A regulatory subunit (natural protein)
chain: not shown
notes: PP2A regulatory subunit B56, epsilon isoform
